Data set [1] deals with T1, TnpA IS1535 (WT) (Mycobacterium tuberculosis), ORF:81838cbf.
T1 sequence: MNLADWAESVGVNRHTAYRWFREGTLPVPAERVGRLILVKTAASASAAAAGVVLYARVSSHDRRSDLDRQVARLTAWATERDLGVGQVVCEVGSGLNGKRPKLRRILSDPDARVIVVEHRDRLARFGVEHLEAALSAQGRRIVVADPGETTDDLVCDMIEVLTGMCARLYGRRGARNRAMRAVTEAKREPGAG
The data set is described as follows: EMSA. Background: Mobility shift assays separate free from complexed probe on a gel.

The subject of data set [2] is TnpA IS1535 (WT) (Mycobacterium tuberculosis). The data set is described as follows: EMSA.
Data set [3] concerns the target TnpA^IS1535, full length, wild type (Mycobacterium tuberculosis). Description: native gel or EMSA; TnpA (32 nM) and TnpA-MBP (8 to 256 nM), alone or mixed, incubated with the IS1535 LEΔ54 DNA probe, which gives only complex I; oligomer bound to DNA judged from the absence of a band of intermediate mobility.
For data set [4], the target named is TnpA^ISC1926 C-terminal domain (CTD), residues 65-221 (Sulfolobus islandicus). The data set is described as follows: crystal structure; TnpA^ISC1926 CTD (65-221), hanging drop, 20 mM MOPS pH 7.0, 100 mM Na-acetate, 0.1 mM DTT mixed with 8% tacsimate pH 4.0, 20% PEG3350, 25°C; 2.9 Å; two dimers in the asymmetric unit.

Usually stoichiometry N stands for a count of units in the complex or per binding partner.

Turning to “AAAAAGAATTCCGACTCCGCCCAATCCGCCAGATTCACGCCGCCAATTAGAACACACTAACGCACACTAAAACACACTCAACACGCAACAGCTCTGAACCCCAGAGCGTTGGCCGACAAGCGCCCACCACACACGGACGTCTTTTT (double strand) [IS1535 LE 149 bp]”, the K half in data set [1] is < 10 nM. As for IS1535 LE 149 bp, in data set [2], the K half was < 10 nM. The substance IS1535 RE 139 bp registered a binding signal in data set [2] (scale: % of probe as PEC) of 3. In data set [3], “TnpA^IS1535, full length, wild type (enzyme)” gave a stoichiometry N of 2. For the substance “TnpA^ISC1926 C-terminal domain (CTD), residues 65-221 (domain or fragment)”, the stoichiometry N in data set [4] is 2.
